Assay results published in patent US20220363623A1, “IMAGING AND THERAPEUTIC COMPOSITIONS” (priority 2019, published 2022).
*1 amine or outer side, *2 acyl side, *3 side chain or, on linkers, in order; H or OH if unused. Where a SMILES comes first, the peptide text is derived from it. Bridges are numbered along the chain shown (N, C = ends). Side-chain parts run from the residue outwards. [ ]: non-standard residue; d: D form. The star is where a group is joined. X1 = O=C([C@@H](Cc1ccccc1)N(c1c(NCCCCCN(O)[*:3])c(=O)c1=O)[*:1])[*:2]; X2 = CC(=O)N(O)CCCCCNC(=O)CCC(=O)N(O)CCCCCN*; Suc = O=C(CCC(=O)[*:2])[*:1]

Columns and labels:
[1] = system: LNCaP (human PSMA expressing prostate cancer cell line) tumour; set-up: species or system mice; conditions: mouse, in vivo
Experimental: (§1) PET-CT imaging and Biodistribution. Male Balb/c nude mice (age 8.5 weeks) or Male NSG mice (age 12 weeks) were inoculated subcutaneously on the right flank with 6×10^6 LNCap cells in PBS:Matrigel (1:1). Mice were weighed and tumours measured twice weekly using electronic callipers. Tumour volume (mm^3) was calculated as length×width×height×π/6. Mice were assigned for imaging and biodistribution studies (tumour volumes: 85-450 mm3). ^89Zr-DFOSq-PSMA tracers were then administered intravenously by tail vein injection to 6 mice. At 1, 2, 4 and 18 hr post injection three mice were anaesthetised using isoflurane and placed on the imaging bed of a G8 PET/CT scanner (Perkin Elmer). A CT scan was performed and followed immediately by a 10 min static PET scan. PET images were reconstructed using the maximal likelihood and expectation maximization (ML-EM) algorithm. PET Images were analysed using VivoQuant (Invicro) and Tumour SUVmax or Tumour SUVmax/background average (TBR) determined. After imaging at 18 hr mice were euthanised and selected tissues were excised, weighed and counted using a Capintec (Captus 4000e) gamma counter. A separate cohort of 3 mice was harvested at 1 hr post injection for biodistribution analysis as above. The data was analysed using GraphPad Prism 7 and differences between tracers analysed using a t-test.
(§2) ^89Zr Labelled tracers: The ^89Zr radiolabelled PSMA tracers were injected intravenously via tail vein to LNCaP (human PSMA expressing prostate cancer cell line) tumour bearing mice. At 1, 2, 4 and 18 h post-injection the mice were anaesthetised with isoflurane and imaged over 10 min. The representative PET images of mice injected with ^89Zr radiolabelled PSMA tracers at 1 and 18 hr are shown in FIG. 1 and quantitation of the Tumour SUVmax for each tracer is shown in FIG. 2a. […] There was a trend for higher tumour SUVmax for (4) tracer compared to all other tracers at all time points. […] A comparison of tumour uptake values is shown in FIG. 2b and the tissue biodistribution data for the tracers at 1 and 18 hr is summarised in FIG. 3.
(§3) ^68Ga Labelled tracers: Representative PET images of mice injected with ^68Ga(1) and ^68Ga(4) are shown in FIG. 4 and quantitation of the tumour SUVmax is shown in FIG. 5a. […] Tumour uptake of ^68Ga(4) was 1.6 and 1.8 fold higher than ^68Ga(1) at 1 and 2 hr p.i., respectively. This is consistent with the biodistribution results where tumour % ID/g for ^68Ga(4) was higher than ^68Ga(1) at 1 hr (10.8±1.3 vs 6.5±0.4) and at 2.5 hr (8.6±1.0 vs 4.1±0.5) p.i. […] (6.5±0.4% ID/g at 1 hr vs 4.1±0.5% ID/g at 2.5 hr). In contrast, there was no significant change in ^68Ga(4) tumour retention at 1 and 2.5 p.i. (10.8±1.3% ID/g vs […], FIG. 5b).

[2] = in vivo; set-up: species or system mice; conditions: male, mouse, total radioactivity; for tissue uptake at 1 h: Tumour Uptake % ID/g 1 h pi; for tissue uptake at 2.5 h: Tumour Uptake % ID/g 2.5 h pi
Experimental: as §1, §2, §3

[3] = system: LNCaP (human PSMA expressing prostate cancer cell line) tumour; experiment: in vivo; set-up: species or system mice; conditions: mouse
Experimental: as §1, §2, §3

[4] = system: LNCap cells; experiment: Cell binding and internalization studies in LNCap cells; format: cell-based, human; conditions: 89Zr tracers, 60 min, 37° C.
Experimental: Cell binding and internalization studies. LNCap cells (150,000/well) were plated in RPMI 1640 medium containing 10% FBS into wells of a 24 well plate pre-coated with 0.05% poly-L-lysine and incubated overnight at 37° C. and 5% CO2. The following day cells were washed twice with PBS and incubated for 1 hour at 37° C. in 1 mL per well internalisation buffer (MEM, 1% FBS). The buffer was then replaced with 1 ml per well of a warmed solution containing 0.5 μCi ^89Zr-DFOsq-PSMA tracers in internalisation buffer. Cells were incubated in triplicate for 5, 15, 30 or 60 min at 37° C. and 5% CO2. At each time point, cells were washed twice with ice-cold PBS and the washes collected for counting (unbound fraction). Cells were then incubated twice for 10 min in saline containing 10 μM PMPA and each wash collected for counting (surface bound fraction). The cells were then solubilised in 1 M NaOH (internalised fraction). Total protein content was determined in this fraction using a BCA protein assay kit (Pierce). A Perkin Elmer 2480 Wizard automatic gamma counter was then used to measure Zr-89 radioactivity in unbound, surface bound and internalised fractions. Surface bound and internalised fractions were expressed as percentage of total added radioactivity per mg of protein. Non-specific membrane binding and internalisation was determined by incubating cells with the ^89Zr-DFOSq-PSMA tracers in the presence of excess (10 μM) PMPA. ^89Zr-DFOSq-PSMA tracers uptake at 60 min was also determined in DU145 cells (seeded at 125,000 cells/well), a PSMA negative cell line. The raw data was analysed using GraphPad Prism 7.

[5] = system: AR42J (rat pancreatic cancer cell line) tumour; experiment: in vivo; set-up: species or system mice; conditions: mouse
Experimental: (§4) PET-CT imaging and Biodistribution of Octreotate/tide Tracers. Female Balb/c nude mice (age 9 weeks) were inoculated subcutaneously on the right flank with 3×10^6 AR42J cells in PBS:Matrigel (1:1). Mice were weighed and tumours measured twice weekly using electronic callipers. Tumour volume (mm^3) was calculated as length^2×width/2. 12 mice were assigned for imaging and biodistribution studies (tumour volumes: 170-550 mm^3). DFOSqTIDE (2.5 MBq) and DFOSqTATE (2.2 MBq) were administered intravenously by tail vein injection to mice on. At 1, 2, 4 and 18 hr post injection three mice were anaesthetised using isoflurane and placed on the imaging bed of a G8 PET/CT scanner (Perkin Elmer). A CT scan was performed which was immediately followed by a 10 min static PET scan. PET images were reconstructed using the maximal likelihood and expectation maximization (ML-EM) algorithm. PET images were analysed using VivoQuant (Invicro) and Tumour SUVmax, Tumour SUVmax/background average (TBR) and Tumour SUVmax/liver average (TLR) determined. After imaging at 18 hr mice were euthanised and selected tissues were excised, weighed and counted using a Capintec (Captus 4000e) gamma counter. A separate cohort of 3 mice was harvested at 1 hr post injection for biodistribution analysis. The data was analysed using GraphPad Prism 7 and differences between tracers analysed using a t-test.
AR42J (rat pancreatic cancer cell line) tumour bearing Balb/c nude mice as described above were injected intravenously via tail vein injection with ^89ZrDFOSqTATE or ^89ZrDFOSqTIDE (2-3 MBq). At 1, 2, 4 and 18 h post-injection the mice were anaesthetised with isoflurane and imaged over 10 min. At 1 hr after injection of DFOSqTIDE and DFOSqTATE, uptake into kidney, tumour and liver was observed. Representative PET images of mice injected with DFOSqTIDE and DFOSqTATE are shown in FIG. 12 and quantitation of the tumour SUVmax for each radiotracer is summarised in FIG. 13a.
^68GaDFOSq-TIDE and ^68GaDFOSq-TATE tracers were injected (2-3 MBq, 1 μg, 0.5 nmol) intravenously via tail vein to AR42J (rat pancreatic cancer cell line) tumour bearing Balb/c nude mice. PET images were acquired at 1 and 2 h post-injection (FIGS. 15a and b). […] Quantification of the uptake in the images using Standard Uptake Value (SUVmax=radioactivity in a tissue/injected activity/BW) confirms the higher uptake for ^68GaDFOSq-TATE (1 h; SUVmax 1.8±0.2, compared to 1.21±0.20, FIG. 15c). The higher tumor uptake of ^68GaDFOSqTATE was also associated with a higher degree of tumor retention at 2 h post injection with only a 5% reduction in SUVmax whereas the tumor SUVmax for ^68GaDFOSqTIDE reduced by 30% ^68GaDFOSqTATE at 2 h post injection. Both tracers clear rapidly from the blood and there is low uptake in bone consistent with stable gallium-68 complexes as well as low uptake in muscle. Both tracers have significant uptake in the kidneys and bladder.

[6] = in vivo; set-up: species or system mice; conditions: female, Balb/c nude, mouse, iv, total radioactivity
Experimental: as §4, with “t-test. The high tumor uptake was confirmed by an ex vivo biodistribution study in the same mouse model where mice were injected with either ^68GaDFOSq-TIDE and ^68GaDFOSq-TATE (2-3 MBq, 1 μg, 0.5 nmol) and then euthanised at either 1 h or 2 h after administration. The amount of injected activity per gram of tissue (% IA/g) in the tumor and major organs was quantified (FIG. 16).” for “t-test.”

| SMILES | Gut uptake in PET images [1] | Kidney uptake in PET images [1] | LNCap tumour uptake in PET images [1] | Tumour SUVmax 1 h pi [1] | Tumour SUVmax 2 h pi [1] | tissue uptake at 1 h [2] [%ID/g] | tissue uptake at 2.5 h [2] [%ID/g] | Tumour Uptake % ID/g 1 h pi [3] [% ID/g] | Tumour SUVmax 18 h pi [1] | Tumour SUVmax Clearance % [1] [%] | Tumour Uptake % ID/g 1 h pi ([3]; male, iv, 1 h) [% ID/g] | Tumour Uptake % ID/g 18 h pi ([3]; male, iv) [% ID/g] | other results |
| --- | --- | --- | --- | --- | --- | --- | --- | --- | --- | --- | --- | --- | --- |
| CC(=O)N(O)CCCCCNC(=O)CCC(=O)N(O)CCCCCNC(=O)CCC(=O)N(O)CCCCCNc1c(NCc2ccc(C(=O)NCCCCC(NC(=O)NC(CCC(=O)O)C(=O)O)C(=O)O)cc2)c(=O)c1=O (single isomer, unassigned) [^68Ga(1), metal not drawn] | high uptake | high uptake | moderate uptake | 1.0 ± 0.02 | 0.8 ± 0.05 | 6.5 ± 0.38 | 4.1 ± 0.51 | 6.5±0.4 | – | – | – | – | Gall bladder uptake in PET images [1]: high uptake; Tumour Uptake % ID/g 2.5 h pi [3]: 4.1±0.5 % ID/g |
| CC(=O)N(O)CCCCCNC(=O)CCC(=O)N(O)CCCCCNC(=O)CCC(=O)N(O)CCCCCNc1c(NCCN(CCNC(=O)CCCC(=O)NCc2ccc(C(=O)NCCCCC(NC(=O)NC(CCC(=O)O)C(=O)O)C(=O)O)cc2)CCNC(=O)CCCC(=O)NCc2ccc(C(=O)NCCCCC(NC(=O)NC(CCC(=O)O)C(=O)O)C(=O)O)cc2)c(=O)c1=O (single isomer, unassigned) [^68Ga(4), metal not drawn] | no gut uptake | high kidney uptake | moderate tumour uptake | 1.6 ± 0.10 | 1.5 ± 0.09 | 10.8 ± 1.26 | 8.6 ± 0.93 | 10.8±1.3 | – | – | – | – | – |
| CC(=O)N(O)CCCCCNC(=O)CCC(=O)N(O)CCCCCNC(=O)CCC(=O)N(O)CCCCCNc1c(NCCN(CCNC(=O)CCCC(=O)NCCCCC(NC(=O)NC(CCC(=O)O)C(=O)O)C(=O)O)CCNC(=O)CCCC(=O)NCCCCC(NC(=O)NC(CCC(=O)O)C(=O)O)C(=O)O)c(=O)c1=O (single isomer, unassigned) [^89Zr(3), metal not drawn] | – | – | – | 1.7 ± 0.12 | – | – | – | – | 0.6 ± 0.06 | 65 | 5.9 | 2.5 ± 0.22 | Cell Uptake % AR/mg protein (60 min) Surface bound [4]: 2.2 ± 0.14 % AR/mg protein; Cell Uptake % AR/mg protein (60 min) internalized [4]: 3.8 ± 0.39 % AR/mg protein |
| CC(=O)N(O)CCCCCNC(=O)CCC(=O)N(O)CCCCCNC(=O)CCC(=O)N(O)CCCCCNc1c(N[C@H](Cc2ccccc2)C(=O)N[C@H]2CSSC[C@@H](C(=O)N[C@H](C(=O)O)[C@@H](C)O)NC(=O)[C@H]([C@@H](C)O)NC(=O)[C@H](CCCCN)NC(=O)[C@@H](Cc3c[nH]c4ccccc34)NC(=O)[C@H](Cc3ccc(O)cc3)NC2=O)c(=O)c1=O [DFOSqTATE] (H-[X1]([Suc-X2])CY[dW]KTCT-OH; disulfide 2-7) | – | – | – | – | – | – | – | – | – | – | – | – | Tumour SUVmax Clearance % [5]: 58%; tissue uptake at 1 h ([6]; Tumour Uptake % ID/g 1 h pi): 10.4 ± 0.5 %ID/g; tissue uptake at 18 h ([6]; Tumour Uptake % ID/g 18 h pi): 4.9 ± 0.8 %ID/g |
| CC(=O)N(O)CCCCCNC(=O)CCC(=O)N(O)CCCCCNC(=O)CCC(=O)N(O)CCCCCNc1c(NCCNC(=O)CN(CCN(CC(=O)O)CC(=O)Nc2ccc(C(=O)NCCCCC(NC(=O)NC(CCC(=O)O)C(=O)O)C(=O)O)cc2)CC(=O)O)c(=O)c1=O (stereo not drawn) [^89Zr(2), metal not drawn] | – | – | – | 0.7 ± 0.03 | – | – | – | – | 0.3 ± 0.01 | 57 | 3.2 ± 0.72 | 0.9 ± 0.09 | – |
